Experimental data from PMC8260793, “A split protease-E. coli ClpXP system quantifies protein–protein interactions in Escherichia coli cells” (Communications Biology, 2021).

B1: Cas3 of E. coli K12 Type I-E CRISPR/Cas complex [E. coli K12] / Cas1 of E. coli K12 Type I-E CRISPR/Cas complex [E. coli K12] (parent complex)
chain 1: MEPFKYICHYWGKSSKSLTKGNDIHLLIYHCLDVAAVADCWWDQSVVLQNTFCRNEMLSKQRVKAWLLFFIALHDIGKFDIRFQYKSAESWLKLNPATPSLNGPSTQMCRKFNHGAAGLYWFNQDSLSEQSLGDFFSFFDAAPHPYESWFPWVEAVTGHHGFILHSQDQDKSRWEMPASLASYAAQDKQAREEWISVLEALFLTPAGLSINDIPPDCSSLLAGFCSLADWLGSWTTTNTFLFNEDAPSDINALRTYFQDRQQDASRVLELSGLVSNKRCYEGVHALLDNGYQPRQLQVLVDALPVAPGLTVIEAPTGSGKTETALAYAWKLIDQQIADSVIFALPTQATANAMLTRMEASASHLFSSPNLILAHGNSRFNHLFQSIKSRAITEQGQEEAWVQCCQWLSQSNKKVFLGQIGVCTIDQVLISVLPVKHRFIRGLGIGRSVLIVDEVHAYDTYMNGLLEAVLKAQADVGGSVILLSATLPMKQKQKLLDTYGLHTDPVENNSAYPLINWRGVNGAQRFDLLAHPEQLPPRFSIQPEPICLADMLPDLTMLERMIAAANAGAQVCLICNLVDVAQVCYQRLKELNNTQVDIDLFHARFTLNDRREKENRVISNFGKNGKRNVGRILVATQVVEQSLDVDFDWLITQHCPADLLFQRLGRLHRHHRKYRPAGFEIPVATILLPDGEGYGRHEHIYSNVRVMWRTQQHIEELNGASLFFPDAYRQWLDSIYDDAEMDEPEWVGNGMDKFESAECEKRFKARKVLQWAEEYSLQDNDETILAVTRDGEMSLPLLPYVQTSSGKQLLDGQVYEDLSHEQQYEALALNRVNVPFTWKRSFSEVVDEDGLLWLEGKQNLDGWVWQGNSIVITYTGDEGMTRVIPANPK
chain 2: MTWLPLNPIPLKDRVSMIFLQYGQIDVIDGAFVLIDKTGIRTHIPVGSVACIMLEPGTRVSHAAVRLAAQVGTLLVWVGEAGVRVYASGQPGGARSDKLLYQAKLALDEDLRLKVVRKMFELRFGEPAPARRSVEQLRGIEGSRVRATYALLAKQYGVTWNGRRYDPKDWEKGDTINQCISAATSCLYGVTEAAILAAGYAPAIGFVHTGKPLSFVYDIADIIKFDTVVPKAFEIARRNPGEPDREVRLACRDIFRSSKTLAKLIPLIEDVLAAGEIQPPAPPEDAQPVAIPLPVSLGDAGHRSS
B2: Cas3 of E. coli K12 Type I-E CRISPR/Cas complex [E. coli K12] / Cas2 of E. coli K12 Type I-E CRISPR/Cas complex [E. coli K12] (parent complex)
chain 1: B1 chain 1
chain 2: MSMLVVVTENVPPRLRGRLAIWLLEVRAGVYVGDVSAKIREMIWEQIAGLAEEGNVVMAWATNTETGFEFQTFGLNRRTPVDLDGLRLVSFLPV
B3: Cas3 of E. coli K12 Type I-E CRISPR/Cas complex [E. coli K12] / Cas7 of E. coli K12 Type I-E CRISPR/Cas complex [E. coli K12] (parent complex)
chain 1: B1 chain 1
chain 2: MSNFINIHVLISHSPSCLNRDDMNMQKDAIFGGKRRVRISSQSLKRAMRKSGYYAQNIGESSLRTIHLAQLRDVLRQKLGERFDQKIIDKTLALLSGKSVDEAEKISADAVTPWVVGEIAWFCEQVAKAEADNLDDKKLLKVLKEDIAAIRVNLQQGVDIALSGRMATSGMMTELGKVDGAMSIAHAITTHQVDSDIDWFTAVDDLQEQGSAHLGTQEFSSGVFYRYANINLAQLQENLGGASREQALEIATHVVHMLATEVPGAKQRTYAAFNPADMVMVNFSDMPLSMANAFEKAVKAKDGFLQPSIQAFNQYWDRVANGYGLNGAAAQFSLSDVDPITAQVKQMPTLEQLKSWVRNNGEA
B4: Cas3 of E. coli K12 Type I-E CRISPR/Cas complex [E. coli K12] / Cas8 of E. coli K12 Type I-E CRISPR/Cas complex [E. coli K12] (parent complex)
chain 1: B1 chain 1
chain 2: MNLLIDNWIPVRPRNGGKVQIINLQSLYCSRDQWRLSLPRDDMELAALALLVCIGQIIAPAKDDVEFRHRIMNPLTEDEFQQLIAPWIDMFYLNHAEHPFMQTKGVKANDVTPMEKLLAGVSGATNCAFVNQPGQGEALCGGCTAIALFNQANQAPGFGGGFKSGLRGGTPVTTFVRGIDLRSTVLLNVLTLPRLQKQFPNESHTENQPTWIKPIKSNESIPASSIGFVRGLFWQPAHIELCDPIGIGKCSCCGQESNLRYTGFLKEKFTFTVNGLWPHPHSPCLVTVKKGEVEEKFLAFTTSAPSWTQISRVVVDKIIQNENGNRVAAVVNQFRNIAPQSPLELIMGGYRNNQASILERRHDVLMFNQGWQQYGNVINEIVTVGLGYKTALRKALYTFAEGFKNKDFKGAGVSVHETAERHFYRQSELLIPDVLANVNFSQADEVIADLRDKLHQLCEMLFNQSVAPYAHHPKLISTLALARATLYKHLRELKPQGGPSNG
B5: Cas3 of E. coli K12 Type I-E CRISPR/Cas complex [E. coli K12] / Cas6 of E. coli K12 Type I-E CRISPR/Cas complex [E. coli K12] (parent complex)
chain 1: B1 chain 1
chain 2: MYLSKVIIARAWSRDLYQLHQGLWHLFPNRPDAARDFLFHVEKRNTPEGCHVLLQSAQMPVSTAVATVIKTKQVEFQLQVGVPLYFRLRANPIKTILDNQKRLDSKGNIKRCRVPLIKEAEQIAWLQRKLGNAARVEDVHPISERPQYFSGDGKSGKIQTVCFEGVLTINDAPALIDLVQQGIGPAKSMGCGLLSLAPL
B6: Cas3 of E. coli K12 Type I-E CRISPR/Cas complex [E. coli K12] / Cas11 of E. coli K12 Type I-E CRISPR/Cas complex [E. coli K12] (parent complex)
chain 1: B1 chain 1
chain 2: MADEIDAMALYRAWQQLDNGSCAQIRRVSEPDELRDIPAFYRLVQPFGWENPRHQQALLRMVFCLSAGKNVIRHQDKKSEQTTGISLGRALANSGRINERRIFQLIRADRTADMVQLRRLLTHAEPVLDWPLMARMLTWWGKRERQQLLEDFVLTTNKNA
B7: Cas3 of E. coli K12 Type I-E CRISPR/Cas complex [E. coli K12] / Cas5 of E. coli K12 Type I-E CRISPR/Cas complex [E. coli K12] (parent complex)
chain 1: B1 chain 1
chain 2: MRSYLILRLAGPMQAWGQPTFEGTRPTGRFPTRSGLLGLLGACLGIQRDDTSSLQALSESVQFAVRCDELILDDRRVSVTGLRDYHTVLGAREDYRGLKSHETIQTWREYLCDASFTVALWLTPHATMVISELEKAVLKPRYTPYLGRRSCPLTHPLFLGTCQASDPQKALLNYEPVGGDIYSEESVTGHHLKFTARDEPMITLPRQFASREWYVIKGGMDVSQ

Variants of: B1
Assay: SPEC system (split protease-E. coli ClpXP) in E. coli cells; parent: 100; read off a plot

Variant | percent of parent [%]
chain 1 H74A | ~60
chain 1 D452N | ~130
chain 1 K320N | ~120
chain 1 S483A, chain 1 T485A | ~110
chain 1 K78A | ~50

Variants of: B2
Assay: as above

Variant | percent of parent [%]
chain 1 K78A | ~110
chain 1 H74A | ~130
chain 1 K320N | ~130
chain 1 D452N | ~130

Variants of: B3
Assay: as above

Variant | percent of parent [%]
chain 1 D452N | ~120
chain 1 K78A | ~73
chain 1 K320N | ~120
chain 1 S483A, chain 1 T485A | ~25

Variants of: B4
Assay: as above

Variant | percent of parent [%]
chain 1 S483A, chain 1 T485A | ~97
chain 1 K320N | ~83
chain 1 H74A | ~82

Variants of: B5
Assay: as above

Variant | percent of parent [%]
chain 1 S483A, chain 1 T485A | ~130
chain 1 D452N | ~140
chain 1 H74A | ~150
chain 1 D75A | ~110
chain 1 K320N | ~120
chain 1 K78A | ~95

Variants of: B6
Assay: as above

Variant | percent of parent [%]
chain 1 H74A | ~110
chain 1 K78A | ~110
chain 1 S483A, chain 1 T485A | ~73

Variants of: B7
Assay: as above

Variant | percent of parent [%]
chain 1 H74A | ~45
chain 1 D452N | ~110
chain 1 K78A | ~67
